Data taken from the domain aggregation screens of Martell et al. (2025).

Assay: soluble fraction after stress (log2 fold change); higher = more stays soluble; pooled small domains, quantitative proteomics
Conditions: stress: 50 degC
How it was run: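 Each library was heated to 50°C as a stress step. The libraries, made up of small protein domains, were pooled and analysed at high throughput by quantitative proteomics. The reported value is the base-two logarithm of the fold change in each protein's soluble amount after stress, taken as a measure of aggregation propensity. The higher the value, the more protein stays in solution.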

Sequence	soluble fraction (log2)
HMQSTVSTHQKTLALDTAQSGIPVFPVSSTHKRPLTDHGYKDATADADAVRKIWQQFPSAFV	0.0922
HMDSRVRHAVLTTLLGKRIVDDLVEKGELPGTPLVLATAPGLDRDLEQLIAQRVVTALLTTV	-0.082
HMREGIQLGDPVRVIRDPLFGKIGAVSGLPSELRAIPTESEVRVLEVRFPDGTTTVVPRANIEVIEG	0.364
HMLKDQSIAQLEKNLDDLKGLMRKMFGSSDVPKITKMISDIESSLANFNQSKANKLIVQTTNYISSKL	-0.36
HMTFGEMLQYTNRLKEILESNAPQSIKDRRLANLMTDLEQAYGIPILRDQEFEKENPFLMQLYRTIS	-2.06
HMTFPIDINRADTEQLTALPGIGEVLAKRIIAYREENGSFLSTDELKNVEGIGEKRLEAIVDLITIG	0.113
HMPIEQVEVPNLTNMTREEAESTLTSLNLKAQVHEEANEADEGKVFKQGTNTGEMVDEGSTIEIWVS	-0.478
HMDSLIEYENERSLRRLINENLSDYERTVWWLYYAGADAAHIAEQTGRSKRSAENAITRVRRKLRALITQS	-1.08
HMDKVSYALGLGIGRQLTDMGAKDLNIDDFAQAIKDVLAGGEVKLSDAEAQTIVRNFFDEQEKKQRA	-0.0034
HMGEAIPVPDIRHKSQADAERLLQDQGLAMMVTDTGYVKTLPANYILEQIPVAGEKVKSGHVVYVIINSG	0.0717
HMNERLKQLRLSLNLNQEEFGKWLGISKSGVSDIESGRRKVTEQHIIMLSNHNISEKWLRTGEGEMFV	-0.0803
HMASMEDILAEAKTKFQEGDLFKSVNEGIQGTHKLTLPLRIKESRIVDASGAAVYREGIWATVDK	0.108
HMTQEMPAEVKKKADAFNNAMDEENYTEAKAILAELEQNTAPSYPLLLQMQTRYAFETASWE	-0.00382
HMDDPQAELLARAVRRVALAAAERTRRNEYGGVYLGLFRQFGISSYRRTPPARLHEALEWLERWRGDLM	-0.0675
HMIINFDAIKLTTELNKYKRHKAIPNTFFDGTYTILDVRELYNDLTPKAQKIADELIEHYNVDVK	-1.88
HMPLDISDDSKAVLKLLKNDSNELNTVKSASGLSNKKWDKTIKELTKNKIVSVSKTEDGLYIHLI	0.202
HMKLRKINLIGIFGSKTAPSALVRLTNGRVLKVGLGELLDGGRVTAIGRSSLTYNKSGKSITLNMPI	-2.73
HMDGASVQRITELTATLNRYRHEYYNLAKPSVSDAVYDRLFDELAALEQKTGIVLSNSPTQTV	-0.247
HMGSDLVAWAQTRIGRHPEEAADVIAALIDRHGEARVRAASRSLLARKFAHASDLRTAIDAAIG	-0.0161
HMLGERIKQIRKQKKMTQTDVATGIITKSMLSMIENGKATPSLPALQAIARRLQVTVEELML	-0.512
HMNYLDVNIPVTSAVWMGKQLPEMGTLIYLTPDKDVEGMLFIKQATKDKPDGEYIEAKVLGYKEGRVLFDF	-0.547
HMIPDPPALGSNLHRERRRQQLSLDALAAASGVSKAMLSQIEADKVNPTIATMWKIAHALNIDFETLLRGE	-0.283
HMALDLPVKRVKGKEYYYYKVKKGESLYGISKHLGLPLDSIVKSNPSVADGVRKGDMLLFPLEEYT	-0.307
HMQITAPVQKIDGVEYYMHKVEQGQTLYSISKLYNVGVKEIQKANQLGTEGIQLGQVLKVRKGG	-0.0136
HMSNEWIEISAKTVDDAINEGLIRLGTTTDKMDVEVLEKESAGFLGFIGKHDAKIRVRFKEV	0.105
HMDTDWDVSGVTPDQYRLLFSVLGGLAGVKDVGLNPDGLRIIHTPEALPSIEKAFQANGLKLKRNVD	0.035
HMTYVSVSNYIGTNVDKAKGELESQGLVVLLEEQKTEDKSQDGMVLKQTIEGGTKVSSGSRITLIYGRYT	0.197
HMGDAVYSKVKDLVNTYNALAKQTGKSDLVSISQSRTWMVNDTKAHEVQWNKIGITIEDDQTLTI	0.179

Sequence	soluble fraction (log2)
HMKKYLTETEAAAYLNMPVEEIKAAITKGEIEQYVKTSSGYTISVEELDKFFGQKAYDTMTSNNS	0.174
HMNPHIQFWSLLRRQPDYNSAYKDELKAMFVWQWSGEKTESLNEFYKTDPYRYKSMLMDMRNRAL	-3.15
HMDDHLRLSDNERISAMSALATHFTEGRLDTSEFDERTLAASQAKSRGDLRPLFDDLPGQLPAALSP	0.0376
HMFFMTMGEKIQLLRKKQNWSQETLAEKLSVSRQAVSLWERDESQPELDKLLKLAKIFSVTTDYLIDDSVT	-0.386
HMNIQKYFAGREQFIELLEAVGIRTLEQFASADPSTVLPELHQAKRMLKLQTEIPSAPVFREWVNQALS	-0.237
HMHGQGTYTSPDGTKYVGDWQDEKMHGQGTYTYPDGMKFVGEFKDNKPWNGTGYDKYGNVKATFSNGVGKS	0.066
HMQRYFLEEAYQPSEKFELSAEAFHHIVHVMRMKPKDRVYLAFSDQQVIIAEITEITEEKVYLTEIEKEE	-0.0978
HMVVDEQRIQTLVSAAEQNSSDPVPRVTLGNLYFDAEQFEEAVKWYEQALALDPRNVNVSTDLGVGYYY	-0.00895
HMARDSYNGVQRTISTLLGQGNYDRAYDVAVGARGQMSKQQWSDVAKRIYEVSGIKIDDSVKY	0.159
HMKNIRKQAIEAIDRIKNGNPIVISKNAKLIFKNIAKEANVSPTELHREFRDVMLYVNSLKAP	-0.255
HMGGHLAYGFSRRFGLLIDEQQGEPVIIARPDYSPVHYAEARRIVGQPAALRVVDEQAFNQLLQSQQESGA	-0.346
HMKEETYHYTVRYVTDGGDILASYEGKATKDSVFFPEVKTFDGYTAVRGEEPMFHLVSDHAVFQIVYQKNG	-0.147
HMGMTDEELNREEERVVAELEAKDEEELTIYNEEDLTFEETLDLPEGSLMRDRENGMIYLKVLDIWMPY	-0.54
HMNNFTPEHLEKDIEGSLFFRRLKETAREEPGSLTVAQKDFIQMWHDQADGVYTLRQVFVQTAFDHVRSL	0.1
HMILYDDEYKGPRYRYGLHSRPLSPGAVPKGFIIHSDRPHPDFRHGTLDYPVKLPDDRAANFELIFIGEFD	-1.02
HMESMIGSLRGRLLELFGDGEVLIEVGGVGYRVIVTPTTTVRLGDVGGDVFVHVHHHIREADQTLYGF	-0.234
HMELADLPSAQIREILAYVYRAPLEKRRDPSIHWLLIAAHKLTLPLLDRLDPADARALGERYGADYP	0.132
HMLLRVGGLVKDGSVRTDNDLGIKFIIEDNLAEVSVLYNGILPDLFREGQGVIAEGKFIDNIFIANEIVA	-0.519
HMNEDTEDIKNINSLVNKLTENNFDIIRDSIVKLINKEHLIPYIIETIIEKSILHHRYVHLYVSILKE	0.0794
HMHRIKRRNDTLVSALDSIAGIGAKRKKALLQHFGSVRAIKAVSAEEIAKVEGISPTLANQIFEAL	-0.605
HMQGQVLQETARKARSQLDSEIPGFNDALYQNLIKSSENYGYKAEEVAQWVDPRAIKVLNDAYQFQQLKAG	-0.0765
HMNYAVTAARRESILNAALEIFGKSGYNGSSVKQVALAVGMTEAGVLHHFGTKSNLLIEVLRV	≥ 0.62
HMRWGDPLTVKVPSFIGQTKDDIAKQHYPFRIEWHGEGAKIGSQLPEVDSVIKQDGTIHLYLV	-0.104
HMRRGFGYVRKLPSGRWQASFVGPDLARHSAPHTFETKGDAEGWLGRRQADVVAGEWRPPVP	0.205
HMQRYFINEPVPEDQRLVLPKDIAHHLVDVLRAEQNDELEVALNDQKVYLARLISLNPATVELQSDLG	0.266
HMSALTDQQQRVLELVASGLVYKEVAAALSISEPTVKYHMGNILTRLHVKNRAQAIAAARQQGLL	-1.21
HMASANMPDVLGLDAETAKQVLAAKGFTKVEIYPMESSEPANRVVRQSEDRDTMVALTKEILLGVSNGS	0.186
